Measured values from patent US20090149389A1 (PURDUE RESEARCH FOUNDATION, published 2009).
Where no end group is shown, it is not given here. [ ]: non-standard residue; d: D form.

What was measured:
MAPKAP kinase II (MK2) [1] = target: T1, MAPKAP kinase II (MK2) (UniProt P49137 1-400, limits assumed); assay: cell-based or functional assay
MAPKAP kinase II (MK2) [2] = target: T1, MAPKAP kinase II (MK2); assay: cell-based or functional assay; remark: listed apart in the source

T1 sequence (P49137 whole entry): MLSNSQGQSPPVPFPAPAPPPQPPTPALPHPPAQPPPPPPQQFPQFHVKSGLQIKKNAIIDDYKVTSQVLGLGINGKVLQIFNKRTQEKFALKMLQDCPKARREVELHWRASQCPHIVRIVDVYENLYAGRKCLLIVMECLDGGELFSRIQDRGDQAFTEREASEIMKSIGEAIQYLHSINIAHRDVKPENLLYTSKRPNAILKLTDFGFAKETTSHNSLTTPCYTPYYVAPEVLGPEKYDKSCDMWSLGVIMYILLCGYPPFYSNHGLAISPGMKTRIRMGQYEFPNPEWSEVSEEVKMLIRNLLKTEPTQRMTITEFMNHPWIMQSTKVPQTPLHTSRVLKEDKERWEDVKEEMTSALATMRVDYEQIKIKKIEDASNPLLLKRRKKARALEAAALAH

KALNRQAGVAA
% of … [SEQ ID NO: 124] Reaction Velocity at an Inhibitor Concentration of 100 µM (MAPKAP kinase II (MK2) [1]): 118%

KALNAQLGVAA
% of … [SEQ ID NO: 124] Reaction Velocity at an Inhibitor Concentration of 100 µM (MAPKAP kinase II (MK2) [1]): 358%

WLRRIKAWLRRIKALNRQLAVA
% of Blank Reaction Velocity at an Inhibitor Concentration of 6.25pN (MAPKAP kinase II (MK2) [2]): -2.1%

KALNRQLGVA
% of … [SEQ ID NO: 124] Reaction Velocity at an Inhibitor Concentration of 100 µM (MAPKAP kinase II (MK2) [1]): 100%

WLRRIKAWLRRIKKKALARQLAVA
% of Blank Reaction Velocity at an Inhibitor Concentration of 6.25pN (MAPKAP kinase II (MK2) [2]): 1%

WLRRIKAWLRRIKALARQLGVA
% of Blank Reaction Velocity at an Inhibitor Concentration of 6.25pN (MAPKAP kinase II (MK2) [2]): 3.9%

KALNRQ[dL]GVAA [KALNRQdLGVAA]
% of … [SEQ ID NO: 124] Reaction Velocity at an Inhibitor Concentration of 100 µM (MAPKAP kinase II (MK2) [1]): 357%

KAANRQLGVAA
% of … [SEQ ID NO: 124] Reaction Velocity at an Inhibitor Concentration of 100 µM (MAPKAP kinase II (MK2) [1]): 152%

KKKALNRQLGVAA
% of … [SEQ ID NO: 124] Reaction Velocity at an Inhibitor Concentration of 100 µM (MAPKAP kinase II (MK2) [1]): 91%

WLRRIKAWLRRIKALARQLAVA
% of Blank Reaction Velocity at an Inhibitor Concentration of 6.25pN (MAPKAP kinase II (MK2) [2]): 3.3%

KALNRQLGVAA
% of … [SEQ ID NO: 124] Reaction Velocity at an Inhibitor Concentration of 100 µM (MAPKAP kinase II (MK2) [1]): 100%

KALNRQLAVAA
% of … [SEQ ID NO: 124] Reaction Velocity at an Inhibitor Concentration of 100 µM (MAPKAP kinase II (MK2) [1]): 72%

KALNRALGVAA
% of … [SEQ ID NO: 124] Reaction Velocity at an Inhibitor Concentration of 100 µM (MAPKAP kinase II (MK2) [1]): 358%

KALNRQLGAAA
% of … [SEQ ID NO: 124] Reaction Velocity at an Inhibitor Concentration of 100 µM (MAPKAP kinase II (MK2) [1]): 373%

WLKKIKAWLKKIKALNRQLGVVA
% of … [SEQ ID NO: 124] Reaction Velocity at an Inhibitor Concentration of 100 µM (MAPKAP kinase II (MK2) [1]): -32%
